Results: patent US10206886B2, “Lipid nanoparticles for wound healing” (Praxis Biopharma Research Institute, priority 2013, dated 2019)

Legend:
[1] = system: Large White pigs; assay: In vivo wound healing in pigs, serial analysis of healed wounds (closure above 95%); conditions: rhEGF-NLC 20 μg topically, free rhEGF 75 μg intralesionally, twice a week
From the text: All the protocols and procedures used were previously approved by the Institutional Animal Care and Use Committee from the Jesús Usón Minimally Invasive Surgery Centre (JUMISC). Six female Large White pigs, with a mean weight of 26.82±2.90 kg at the beginning of the study, distributed in individual pens of 2.90 m×1.35 m were used. All the animals of the study were randomly distributed in acclimated rooms, where the following housing conditions were established: 12-hour light-dark cycle, temperature between 20 and 25° C., eight air changes per hour with HEPA-filtered ventilation and relative humidity between 50 and 70%. As pen environmental enrichment, hanging chains and chewing rubber toys were installed as chewable elements. After an acclimatization period, the animals were identified by ear tag codes to be included in the study. […]
Wound healing kinetic was determined by measuring the wound closure (percentage of initial wound area closed) on days 1, 15, 25, 36 and 43. The wound area was assessed, in a standardized manner, taken photographs perpendicularly to the wound surface, using the same illumination and placing a transparent plastic sterile ruler next to the wounds to introduce a metric reference in the pictures for further processing. The wound area was calculated using the image software ImageJ (see section 5.3). […]

[2] = system: Balb/C 3T3 fibroblast; assay: Proliferation assay with rhEGF-loaded nanoparticles (CCK-8); assay type: cell-based; conditions: 15 ng/ml rhEGF, after 48 hours and 72 hours, FIG. 1
Procedure: 24-well plate was used for the proliferation assay. 35000 Balb/C 3T3 fibroblast resuspended in 1 ml of completed culture medium (DMEM supplemented with 10% FCS) were seeded in each well. After 8 hours of incubation, the medium was replaced by 1 ml of 0.2% FCS supplemented DMEM and cells were incubated overnight. Then, medium was replaced by 1 ml of: (i) 0.2% FCS-supplemented DMEM, (ii) 15 ng/ml of free rhEGF in 0.2% FCS-supplemented DMEM, (iii) empty SLN in 0.2% FCS-supplemented DMEM, (iv) 15 ng/ml of rhEGF-loaded SLN (rhEGF-SLN) in 0.2% FCS-supplemented DMEM, (v) empty NLC in 0.2% FCS-supplemented DMEM and (vi) 15 ng/ml of rhEGF-loaded NLC (rhEGF-NLC) in 0.2% FCS-supplemented DMEM.
The cells were cultured under the same conditions for 24 hours, 48 hours and 72 hours. The experiments were performed in triplicate. After the different incubation intervals, 100 μl of CCK-8 (Sigma-Aldrich, Saint Louise, USA) was added to each well (Zhou, Y., Qian, M., Liang, Y., Liu, Y., Yang, X., Jiang, T., Wang, Y., 2011. Effects of Leukemia Inhibitory Factor on Proliferation and Odontoblastic Differentiation of Human Dental Pulp Cells. J. Endod. 37, 819-824). After 4 hours of incubation, absorbance was read at 450 nm and at 650 nm as the reference wavelength. The absorbance was directly proportional to the number of living cells in culture.

[3] = system: db/db mice; assay: Histological estimation of wound healing: re-epithelization score (Sinha criteria 0-4); assay type: in vivo; conditions: 75 μg rhEGF intralesionally (free rhEGF twice a week; rhEGF-MS once), scale 0-4
[4] = rhEGF plasma concentration (systemic absorption), ELISA; assay type: in vivo, pigs; conditions: 30 minutes after first dose; free rhEGF 75 μg intralesionally
Procedure: (§1) Treatment administration began 24 hours after wound induction (day 1 of the study) to allow primary homeostasis, platelet adhesion and aggregation, and activation of the coagulation cascade. The animals were randomly divided into three groups (n=2): (i) empty NLC, (ii) 20 μg rhEGF-NLC and (iii) 75 μg free rhEGF. Nanoparticles previously resuspended in 150 μl of vehicle (0.5% carboxymethylcellulose in 0.9% saline) were topically administered twice a week by spreading them over the wound bed. Free rhEGF, resuspended in 1 ml of vehicle, was intralesionally administered twice a week.
In addition, plasma samples from the rhEGF-NLC and free rhEGF treated animals were collected to assess rhEGF systemic absorption. rhEGF detection was performed by ELISA (human EGF ELISA development kit, PeproTech). Samples were drawn when the plasma rhEGF levels were expected to be higher. Thus, samples from the animals treated with rhEGF-NLC were collected on day 1 of the experiment (prior to the treatment administration), 4 hours and 24 hours after administration. Plasma samples from the animals treated with free rhEGF were obtained just after administration and 30 minutes after the first dose. […]

[5] = system: Large White pigs; assay: Histological assessment in pigs: wound maturity and healing quality (Cotran criteria); assay type: in vivo; conditions: rhEGF-NLC 20 μg topically, free rhEGF 75 μg intralesionally
Procedure: as §1
Complete skin thickness biopsies from the centre of the unhealed wound to the healthy margin (2 mm) were collected using a sterile scalpel. Collected samples were immediately fixed in 4% formalin, embedded in paraffin and excised in 5-μm thick layers. Samples were stained with haematoxilyn-eosin (HE) for morphological observations. Biopsies were collected on day 15 for wounds 1, 2 and 3 and on days 25 and 43 for all of the wounds. On day 36, wound images were taken but no biopsies were collected not to delay wound healing.
Wound healing was determined in terms of the re-epithelization grade by measuring the newly formed epithelia, and wound maturity and healing quality according to the Cotran et al. (2000) criteria.

[6] = system: db/db mice; assay: Histological estimation of wound healing: inflammation score (Cotran scale 0-4); assay type: in vivo; conditions: 75 μg rhEGF intralesionally (free rhEGF twice a week; rhEGF-MS once)
[7] = system: db/db mice; assay: In vivo wound healing, wound closure (wound area); conditions: 75 μg rhEGF intralesionally (free rhEGF twice a week; rhEGF-MS once)

B1: free rhEGF: Non-encapsulated recombinant human epidermal growth factor; 75 μg of lyophilised rhEGF similar to commercialised Heberprot (protein, UniProt P01133 23-1207, looked up)
Pro-epidermal growth factor: PQHWSCPEGTLAGNGNSTCVGPAPFLIFSHGNSIFRIDTEGTNYEQLVVDAGVSVIMDFHYNEKRIYWVDLERQLLQRVFLNGSRQERVCNIEKNVSGMAINWINEEVIWSNQQEGIITVTDMKGNNSHILLSALKYPANVAVDPVERFIFWSSEVAGSLYRADLDGVGVKALLETSEKITAVSLDVLDKRLFWIQYNREGSNSLICSCDYDGGSVHISKHPTQHNLFAMSLFGDRIFYSTWKMKTIWIANKHTGKDMVRINLHSSFVPLGELKVVHPLAQPKAEDDTWEPEQKLCKLRKGNCSSTVCGQDLQSHLCMCAEGYALSRDRKYCEDVNECAFWNHGCTLGCKNTPGSYYCTCPVGFVLLPDGKRCHQLVSCPRNVSECSHDCVLTSEGPLCFCPEGSVLERDGKTCSGCSSPDNGGCSQLCVPLSPVSWECDCFPGYDLQLDEKSCAASGPQPFLLFANSQDIRHMHFDGTDYGTLLSQQMGMVYALDHDPVENKIYFAHTALKWIERANMDGSQRERLIEEGVDVPEGLAVDWIGRRFYWTDRGKSLIGRSDLNGKRSKIITKENISQPRGIAVHPMAKRLFWTDTGINPRIESSSLQGLGRLVIASSDLIWPSGITIDFLTDKLYWCDAKQSVIEMANLDGSKRRRLTQNDVGHPFAVAVFEDYVWFSDWAMPSVMRVNKRTGKDRVRLQGSMLKPSSLVVVHPLAKPGADPCLYQNGGCEHICKKRLGTAWCSCREGFMKASDGKTCLALDGHQLLAGGEVDLKNQVTPLDILSKTRVSEDNITESQHMLVAEIMVSDQDDCAPVGCSMYARCISEGEDATCQCLKGFAGDGKLCSDIDECEMGVPVCPPASSKCINTEGGYVCRCSEGYQGDGIHCLDIDECQLGEHSCGENASCTNTEGGYTCMCAGRLSEPGLICPDSTPPPHLREDDHHYSVRNSDSECPLSHDGYCLHDGVCMYIEALDKYACNCVVGYIGERCQYRDLKWWELRHAGHGQQQKVIVVAVCVVVLVMLLLLSLWGAHYYRTQKLLSKNPKNPYEESSRDVRSRRPADTEDGMSSCPQPWFVVIKEHQDLKNGGQPVAGEDGQAADGSMQPTSWRQEPQLCGMGTEQGCWIPVSSDKGSCPQVMERSFHMPSYGTQTLEGGVEKPHSLLSANPLWQQRALDPPHQMELTQ
modifications: Pro-epidermal growth factor
notes: Non-encapsulated recombinant human epidermal growth factor; 75 μg of lyophilised rhEGF similar to commercialised Heberprot
percentage of healed wounds ([1]; day 25): 40%
wound closure state ([1]; day 36): completely closed
cell proliferation compared with control groups [2]: greater cell proliferation
Re-epithelization score Day 8 [3]: 1.25±0.89
Re-epithelization score Day 16 [3]: 2.71 ± 0.49
Re-epithelization score Day 8 ([3]; listed as Free rhEGF): 1.25 ± 0.89
rhEGF plasma concentrations [4]: 0.20 ± 0.01 ng/mL
extension of inflammatory tissue (Grade 2) ([5]; day 15, FIG. 10A): mainly showed a diffuse acute inflammation
wound maturity and healing quality (healing grade) ([5]; day 25, FIG. 10B): still showed chronic inflammation
Inflammation score Day 16 [6]: 2.75 ± 0.95
Inflammation score Day 8 ([6]; listed as Free rhEGF): 1.75 ± 0.71
Inflammation score Day 8 ([6]; listed as rhEGF): 2.13±0.64
Wound healing 4th day [7]: 8.42 ± 3.96%
Wound healing 7th day [7]: 19.94 ± 5.21%
Wound healing 11th day [7]: 44.80 ± 2.64%
Wound healing 14th day [7]: 61.83 ± 2.99%
